Test: soluble fraction after stress (log2 fold change); higher = more stays soluble; pooled small domains, quantitative proteomics
Conditions: stress: 75 degC
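Further: 20 min heating vs room temperature control held 20 min.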

Row | Sequence | soluble fraction (log2)
1 | HMEQMSLISKKKGERIDKFLGENLGDLSRSYIQKLLKDGLILVNGKKVKANYKLNEGDQIDVEVPDP | 0.327
2 | HMEQMSPYPNPSKGKIQFHNQEPMDIKVFNSLGQIVFEQRILSRAILDLSRLSPGQYIVQAGEQKNIWIK | -1.64
3 | HMEQPPVPSVSITAALGSAVARRLAPHGFQKMPDLVDAYRAGKLAQISGIGGTTLDLIREWLTANARQQ | -0.441
4 | HMEQQEFIVPHDSEGQRLDLFLVSVLGTHSRSQIRKLIVNGHVKLENRAPRPNLPVRAGESVVVSMPEPT | -0.849
5 | HMEQQSIYLENRERMTINQVIDVDAFDEETLWANLKEGAVEISGSGLHIEKLDLAEGVLIVSGIIRAFAYV | -0.856
6 | HMEQQVDYTQFIQDVRQGQIREVDVDRNGVINGIKRSGENFVTVIPGGYDRDLINDLVKQGVNATGEL | 0.25
7 | HMEQVKFFDAKVITTPPNRLKTRYTPAGNLRPEADWLQSGAIVPVYETSGAGWYRIGYQTWASAEWMQRLD | -2.8
8 | HMEQVSDPALLERYAKEVVAASPKAVADYQAGNAKAFQALVGQMMKRTKGKGDPALIREILQKL | 0.0645
9 | HMEQVTMSNFLDKWGTSTKSPNAWYTSLSPMQKAEAKLLKEESGLTWNKWYEKNIYVGDGTN | 0.985
10 | HMERAYGVRVSLRLDDPFRTLLGADWSRTHWFASAEERDAALLEMSRKHEFSRPGDQPALVYEKVQN | -1.26
11 | HMERDVNQLTPRERDILKLIAQGLPNKMIARRLDITESTVKVHVKHMLKKMKLKSRVEAAVWVHQERI | -1.55
12 | HMEREQNILQGREVVERELRRLGLAEAYTVSDIAKALKFDDEEQFLAKVGFGDIQSRQISGAIALMEKN | -0.0753
13 | HMERFLENAIPVLGETGLDIKSATEDFENALIRQALHLSGGNKNRAATLLGLKRTTFVEMLKRKSL | -1.12
14 | HMERFMEFVITDTQQGQRLDVVLTETTEHLGSRSHMQRSIRAGLVSIDGITTTRASTKVSSGQIIRVEPT | -1.42
15 | HMERGEFQKLGRATLEQTLARAGKTLAEVSLKAMLETFAFAAEEDLYEALGRGRVSAAKVGETLFPALKGR | -0.85
16 | HMERKMKNNISDQTTYDTDKILNFNGKGYLNGLVIPNNYQIKEEGYYVFRQVALDGREQILYFTIQDLS | -1.98
17 | HMERLSVSMGDMVVFVRDAVEAFRGLVKEKGITLTFESKVEHFYMNYDHDKVYKVVNNLLSNAVKFT | -0.145
18 | HMERLTVVPELLKRSLSEAQPLVTSARLRLEVSGGAPEDTSRAIVVGQKPPPGTRVQVGTTVIVTVQIQRP | -0.534
19 | HMERPYNGKQMEYHEGGVEKKETLFVEGGLSRVIQWDESGQKRSEVNISPTGVRREQYWDSSGKAIAKPS | 0.14
20 | HMERQAEAWTNRASALISLGRDEEALEAADRAIELDPRLSKAWIDRSTALSNLGRNDEANEAIQMAMFL | -0.12
21 | HMERQILFTKEDLIEFGLSGGTDSRKRRDVLGHILGIGYSNSKQFLNRLNNFGVTREEFLSAIERIG | -0.816
22 | HMERTVEVVDINDVFSQFLRLYSRERAAGLLSVFKRVEHGLSWQGNPVLLERILSNVFENAIKYAA | 0.149
23 | HMERVIYLLNGREVPAAEIRAAEPEALTVDRFYSSENLPAEYRDRNPELVVAFTAEEPLRHY | 0.512
24 | HMERVNILEKATKDIPNVEVKAFEGLSVNFARENHAQVIVRGLRAVTDFEYELQMAQTNRVLAPDVDTVF | -0.0564
25 | HMERYSVQVGSFRNMRYAERLKQELQGEDFPAYIEKSGEFNRVRVGKGLTLEEATQLEQVLRKSGYQTVIV | -0.705
26 | HMESIGANIRRLRKERNMSQDELARKAFTNRSNINRYESGKMVPSADTTEKIEEALGVPAGTLAQ | -0.214

Row | Sequence | soluble fraction (log2)
27 | HMESKDIRYVQLQTVSPEEVLQALALIMPRSDVYVEPTGKLVVLHGSKETLDRAEELILALDNAV | -0.116
28 | HMESKITTAEAAAILNASPQFVRVAMQRGILNIGIAMQMPNSNKWTYNISPKLLGEYSGKNIEYELERLR | -1.65
29 | HMESRTQVYDFYKDLFREKRRPLRAEEMLSALKSQRGIVGVNQYQIIEQHGIVRLSGSGRSALYWDTDLGS | -2.69
30 | HMESSREVSFSEFMKQIDSGRVSSVKLDGETIYVRNSDGTSYKVIQPLGTDLIGVLRKSDIDVQAIKQ | 0.107
31 | HMESYNIVEQVLTKKILSKGNTLAKLSNEFDGLVMLVIRGDEFIIPNGETLLFEKDILVINNGP | -2.68
32 | HMESYTGLAVTEDDDGWSNVRSGNSTSYSILFKIYAGEKFNILSNDGKWSYIDFNGRKGYIHNSIIRKY | -3.82
33 | HMETAADLLAAAKENPARFGILASEGRFGLGYMNDDLLDPDNLVAISREEADDLRGLGVYFHNLD | 0.293
34 | HMETALYVEDLDRAVRFYESVMGLNTMSRGVRLVALDAGEGTVLLLFLRGATTSGASFEGGWIPPH | 0.05
35 | HMETDNEKVRTAFQNGLAAYREQDWDRAEAAFGAVLAEMPEDRPSLVYLERIAHLRKKAPPGAWDGVWI | -0.335
36 | HMETENLSPREREILEYIVKGYSYKMIAADLNIATETVRSHIKKIYKKLQVNSATEAVYKYSN | -1.51
37 | HMETEQVEMIRVVGMHVDEAKKALLDLGLSPEIKYEESSSYDAGTVLRASVQDGLMIDKGTNIVLTVAEA | 0.293
38 | HMETFEKIKELAKKRGKALGQVEEDLGYGRNTLYKIKNSTPNAERIAEIANYFNVSTDYLLGRTDNPTIAK | 0.108
39 | HMETFNMTQKEITRLRVINQAIDKVITIREAAELLGLSERQVIRLKGGVEKFGPAFIIHKNRGRKP | -1.57
40 | HMETGLSNYEFKRIREQAEALLSDGQVRRINDLVDSIKNENAEKVIRVIRFLIDTEELILEDDRVSAKKS | -0.615
41 | HMETIVGIDPDSKKKIVLKKGIKGRPDYLSFNKKNYSLPSELKEKNVSLEQALEIINDKKSNKKKIK | 0.369
42 | HMETLSKVGSTGSEVRQIQTKLKNWGYFSDKVDGIYGEKTRAAVVWFQKKNGLTADGIAGPATLKAMGIYT | -0.705
43 | HMETLSVRERMTSIISLLNKHEDIEFSKLFNISEGRLGVVVTFLALLELVKESLVDVIQNQPMSKLYIGKK | -0.278
44 | HMETLTPQEHKVLLLAVKGRTNGEIASELGIAQNTVKNHLAHIYAKMGVGNRTELASEYLRRIH | -0.203
45 | HMETTEELISKTVPISYADMAALTGILDGVKSARGDIQVDDRTSTIIIHDIQSSIDEMMRLIKILD | -1.04
46 | HMETTMVEIKAEFTIRNRLDIPAMMEKAGYKDRGEFLSVLEKITGNYNWDRDVKKGDTFMVPSKLA | -1.75
47 | HMETVPMIDLRGMTQEQAEKAIVGLGLTVGTVDHSSSDMPAGQVWFQSVEPKDEVAPGTKVNIIISTGS | 0.0577
48 | HMETYNLDVGDSAVLQYQNVSRISVGNPDVLDAIPLDKSQILLTGKATGGAALIVWDSKGMHMEKVMVHPA | -0.428
49 | HMETYTVSSKDGYANVRNEATVNSDLIAELKNGTLVTKFKEKGEWYYIEFEREDGTPFDYGYIHKSQLK | -0.00382
50 | HMEVALEVPELRGLSMKQATNTLMASGFEVQKVGSGTIYAQFPLPGERLRTGYAVTIRGKTRDLG | -0.345
51 | HMEVAPEKVLEALNELPEIYKIVLNLYAVENMSHKEIAKKLGISLGSSKSRLSRGRVMLNTLLNR | -1.3
52 | HMEVDWLEVEKVIVSSSYSWMENSPKVKLLQEYIGVTADGIYGLGTWGAHRTHAVDLGFINLSYPIP | -0.129

Row | Sequence | soluble fraction (log2)
53 | HMEVEADEFQQLLRSGEYVQALDRARANQDIGLRQQQIVQIARHQAASGIQAGAMGSLASLYQF | -0.0286
54 | HMEVHLMPGTVLLREYESNEYRVTVTPEGFYDLNGKVFKSLSAVARHITGVNWSGPRFFGVEP | -2.81
55 | HMEVLSYYGSRGQEVVNIQTKLKQWGYYKGNIDGIFGNLTYQAVREFQRKNGLKVDGIVGPETLAALGLPT | -2.64
56 | HMEVPQVETEKVEAKLKEAEVLLVKVTDSSLKANATETLAGLRNNLTLQTMDNNGIMAEAEKLLALLRES | 0.0802
57 | HMEVPTGNHIRRWRKSLDITQVKLSSLSGVAQSIIAKIENETVDPRVSTLRKLVEALSRFENP | -1.89
58 | HMEVQVGKQVRAFRETLGMTVQQFAERTGFSAALLAQIENRMVSPSLGTLVKIANTFGTTVSSFIG | -0.0249
59 | HMEVSTDADFEAVGIRAELIPILQKLGFTTVAQLKEVKATKLFNDIPGMRKKLKLDAVQNPTLQEIEGWLK | -0.0412
60 | HMEVTLEEKLSYVEEYAKVHSHFSFRDLLKKQASKTQIVVTFLAILELMKTGKIQITQEHIFDDIVITAK | 0.0631
61 | HMEVTYQETLRVLYNAIDKLPPQTKEIILIGLDGKDNNEIAATLNISVNTVKTLKKNAYKTLRELLVD | 0.0283
62 | HMEWNPEKQHLLENYITNYSRQLNDTGLFYKNLDWNYIFNLVGVDDQEFLMLKIDEIYDESINVY | -1.74
63 | HMEWNREQLEQIVLQHIRKHGFITRATYTELTGRLKNSALADLKSFAAEGIIKRVGRGNQMHFIVPL | -2.35
64 | HMEWTDHLAEELRSLAVEGEHLEIIANKLGISPGSARAKLVNLNIYNDYQLAHIERLEADTLQAK | -0.349
65 | HMEYFDDEELDRYKGRTSDSFTDDEAEEFREVMMTMHPEEVKAWNRSLILRDVAMPDQIKDDYIMLAG | -0.141
66 | HMEYKYNPADYPYPLNEDIEKVYSAYREKSIGKLEAAVQNLYYTLKQARRDNILSDVKVNEMQQYFLALRN | -0.857
67 | HMEYNLTLEELNRDLYIRGEIWNVGDVVKTTDGDEGTIIRKGTNYVVFEDLRRVWLHNLEEVK | -1.51
68 | HMEYREFEAMTIRAIATLPPTQGHVIMLSRFEGLDNKEIALRLNLSLQTVKNTLTQGLKELKNKMRKLP | -2.02
69 | HMEYSAAYDRELESIFNLTERGKWEEAEAEVGLLLQQYPEDKTLLRISEWVATQKTILREQAIEDRIRS | -0.0776
70 | HMEYSYKLIDLLVDRFSEEGVDPEEAREYINLFHRFSQGLDPDKRDITKYSWDELYRTVNDKKDS | 0.664
71 | HMEYTVNHYPEKHRFEVVEDGLTAYVEYRLRGDALDIIHTIVPKNLEGRGIAATLVETAYKYAKEQ | -1.27
72 | HMFAAIFADDSGFTTRSKRFGPYVEEIAADWQAVKQLSDEDAKQALVPLVKKIELALSTLQQFVSSV | -0.166
73 | HMFAATGTVNTEGSSLRLRAEASTSSSVLKQLSHGTQVDVLSGLVDGWYQVSYKGTTGYVSGEYLTVTE | -0.704
74 | HMFADLNPDENYGQVYIRTNTIDNLYQTLLDNKTRIHPNGLLELKPWGQKEFSILDPDKNLLTFGES | -0.00771
75 | HMFAERLKELRKMRRFSQHALAERLGISQQAVGKWETGKSTPDPATLREIADIFEVSVDLLLGR | -1.17
76 | HMFDDEELDRFAGVPADAYLPADEDEFREVFYTMRPGEVVEWVRSLELRHIEIPNGIKDEIFMMIR | -3.97

— the domain aggregation screens of Martell et al. (2025)
